# Tested on: Saccharomyces cerevisiae
# Assay: transcriptional activation domain activity (GFP:mCherry ratio, weighted mean of sorted bins, harmonized to initial dataset scale) (arbitrary fluorescence ratio units); higher = stronger transcriptional activation
# Settings: beta-estradiol 1 µM; induction time 4 h
# Summary of the method: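 Yeast diploids with a GFP reporter received barcoded protein tiles, fused to an estradiol-inducible synthetic transcription factor, at the URA3 locus. Cultures were diluted 1:5 into SC holding 1 uM beta-estradiol, incubated 4 hours at 30 °C, sorted into 8 bins on GFP:mCherry ratio, and sequenced for barcodes, with tiles under 50 reads discarded. Activation activity values come from the read-weighted mean of bin median fluorescence, averaged across barcodes and linearly placed on the initial dataset scale.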
row,Sequence,transcriptional activation domain activity
1,HEDQKLREDQEARLRAVEEFEAVQMGLSVKTGASARVIGRQGGRIVAEEEQHV,26100
2,HELFALYNLLYFRKLLLPRVEVIWSPRLTLCAGICELSKDPKTGKFTRIRLKL,47000
3,HEQKICAKYGSDVIFADNIDGGDSDEDERSTSCTCGKLRAIVARVMVAIGGDL,48400
4,HERLKLCNYQQAPDNIWCQYWFMGSFLVFFSNLDAVIDLPVMILLDLMPQICF,44100
5,HESDDFWRENASKLNEKDYEQLKLVPLHMFAPDWPLNCLLLRILVRLLSTEDP,30700
6,HESEESSDKKGKKKAKIEEEKEEEKEAEEEKAEEVEEAEEAEEVGEVGEEAAV,45400
7,HFAFESLAQTKHLERICMLSIRFVYVYAPHGEPIQLVVGFLICLLSNSPVSNG,55200
8,HFAGLVILGVFLMFINAIVLWPILKSFHDCKHLIKVWFFWMIYCLLFVLYIFC,72600
9,HFILLHCNQLKNWFNNNQITWVIPKIGKCSHKIQVVSSHVLRAVHLFSQKYYL,58700
10,HFILTGSDLGWVLVYFDYDDRIYIFLMEWCKLNCYWIILMYIWNILPTALLLQ,34300
11,HFILTYLLLFMSVPFEFVMASFEFFHLIHCLKFPNTFYSFFFSFVFFLRHFVF,56700
12,HFLGALIMLLGGYFHANLIHFGSYIWPSFLVWGLDRLIRLARVVYFNHLYFGF,34500
13,HFLLLPSLFLFSSFLPFLTSLPPHSPFFFLSFLFFSPLFSLFFLFINSTHFLP,41700
14,HFNSVTTTYFKDGQSFYDILKCILPCIVDFLPKNSILVHCICAYLHFRILVGL,53500
15,HFPKRSFRHWVGLMFFSFLTCCTLLLQFRAAVTLTVNSHLPWITRSGLWYLVL,68800
16,HFSLLWPPHCSLWCTLFFLLIGHFVFILCLCYSVFFSFPSFLLIVSCFLLCFP,37800
17,HFSPSLSISSLPSLCCLFFFIIFSTSLLWSFFPLPYLTSPYLTLPYTTFFLFP,48000
18,HFVELSTILGIIILHSPAICLQVVLLLFCGLHSVVVALMLDRVPPLIYLAFFV,66100
19,HGAPPPPPPPPPPPPPVAGGPPPPPPPPPPGGAPPPPPPPPPPGGGGSAPLPA,44500
20,HGEERGWIYLVQYRGIAWLLRRLACCRFEILAIFHLSNLNHPVNVLADSYDRE,19700
21,HGPMFHFSISNWVEGAKLAGHGNPTGHNPELILNNFRTPLGLLTAHLFKTMFP,52200

row,Sequence,transcriptional activation domain activity
1,HGRARPSRASASVPARKKTKSKVKKRASAAVVGSDDEDGEERPKKRRGGGGGA,33100
2,HGSTLTTIMIQVSEVMILPSFFQELLDTIRTRCPRVVNFMIWFQVWNWMMVPV,73300
3,HGTHCSGTVAGKKYGVAKKAHIKAVKVLRSNGSGSMSDVVKGVEFAAESHAGE,38600
4,HGTLCDIYLVIILKCCGDDDNSVSLVEGIALAPSSARSNAFERVGKFGGGPES,46900
5,HHDNVNPTIPPPDNYILNNENDDGLDNLLGMDYYNIDDLLTQELRDLDIPLVP,140000
6,HHFVCAFYFQDSWGLGLMKRLLIVVCLLLATYVFPLPLTSPPWSFIWKQSWVI,48300
7,HHFVWERCLPDQMFVFAEDDIAHILNVTISSLELPMKTRQEIWVPSNVLFLCA,54200
8,HHLHAFLLGLGFLFSLLICVSSSCLVSSSLLRLLLLLPRFARWIRFLLYILLL,64400
9,HHLRLHWFADVLNYRARDTLFSILRIVSHIRSLRLFAVYLLRWERQRHEAKTV,49800
10,HHLSSQLVFSRSRFFYSSFTSWINVFLVISLIVFLLSILLLFLIIFLLHYIFF,24800
11,HHLVITHVILFCLITFRCFTVIVRSIYERWHIKSAVIVLDLGSSWGLAANVPW,43600
12,HHTHHSSSTDWSRAFRKWSVRLLLAIAFPTTYLLGAAMPPKIILMLYPRYSPP,39100
13,HHTLPYRFRLDGHAAYLGLFIHFLSVLVVVYIFRLEVCVRYRPGWMRCQCWWR,81600
14,HIDSFLDQMCKVAEGGGFSLSTLADCVILFRDLARIYQEPFSSPFLRLLYAYT,65300
15,HIFYTQLYPAYDLPKKLQEDTELETEQENQMLNQVGNINYTHDFSLSHEIDDL,57800
16,HIHCFVALFLVMPFFVLVFIVFLGGCNYCLQKKLVLPSLLLTFVIYGGGRLGF,37900
17,HINYFSLSLIIFYFLIFFISNYLLIKFLFFNYFLPKWWSSRPLRSMIYSLFSI,42500
18,HISCLIISVFLCELMVHIPLSTLFYVGLYFPVHFISTPGYFYFIYCILFQLFL,47300
19,HKEASDKENTGSGQAQKNNKVKANTGARVKDEQEAKKKVGRPKKGTEAGTGAG,39500
20,HKLALNLKTAWKGRKYEIPLFGVHIAGQYVSTYIFYEVASFKAFFNYIFSFTR,69100
21,HKLKHVLAEHGARMSIHLGRRQVTHVILGRPAGGGGGAGGGLAGGKLQKEIQK,42500

row,Sequence,transcriptional activation domain activity
1,HKLVVQVLQSQLLILKILDLCVTFHWHSHRERYLGIGYPLNGSASSLSSNAPY,41400
2,HKRKRTGQEEVAKKPKESRRDKKTRRKRTEPDEEIASADTKERRRKSAGAEKS,20800
3,HKRRRDSVMMDYDLSNFFSSRQLDISKVLNGTEQNNSHVNDDVLTLSFPGETD,35100
4,HKWIIPTPFASHAFHPVDGYLQSVPYHLFVFIFPLHRILYLVLFVLINFWTIF,62300
5,HLCHLVPSLPFHLPFFFFEPFLSKTFTSFFLFFFLWLSPLNTNHPPIFLFFHT,80200
6,HLFFLKNHHCFLSFIFFLFLFTLFFYFIFFLKLQFRKNNNYLFFLYKKFLTFF,36800
7,HLGFRYWLLSATEIVNTIFLPSVIAYLYTVYIRFLLTYWLSYAIIAGSFMILF,53000
8,HLGHEAQASIEEEEEEEEEEEEEEEEEERRGEGGSVRKATHKIAAATVASVGT,33300
9,HLINEDKYQSFSIKQWLPLVYNMLFYIKEKEELVLRINSSFTLRRFVEMAAKE,50700
10,HLIVSLSLSIFLFYLFWCLSIHVCVCLVSIYYILLLASLCFFLFFFNYLPILL,50300
11,HLKHTFVMDVAMSIGYLMAPVLVSACAFIWYVKVDNHELSASVVFVSITLFDM,61800
12,HLLDTNCLLLILKMFGLQEVTNSVVSKVDSPENNFFRYCLMNYSKNPQPMRPE,39100
13,HLLIKILATRFFLEAKKTTYAPLNDQGTLMPSVEWTIMAQLWRLARNKWFEAT,51000
14,HLLILRFVAHFSHLGLGCSSYSLMFYVLSYLLYISLLSNIISLYPPSCLYLAH,45400
15,HLLKWCNFGLLPHWLFHILILVSKSSLNNLIIAYVYCPLFFGCFLPSTYISCN,58200
16,HLLSPHIAPELIELLVVRTFLQPHPWPVPSCATTGFLRTLAWISRWAWRHSPL,43900
17,HLLVVAPLILAYLTVDDLSNLRLRLLGRCLRLLAISLAFLCACCCTSSSTPST,58200
18,HLLYVYLVLIAVVISSYRCFLNVSTRSIVICLLTHAFWPPLTFIIVCSAFWIP,73100
19,HLNGESSPQLVPHSHHQPHSDTDEEDWESIGAASLRNNSLAPNIDSVASSTNG,45100
20,HLNPSWIFLFLFLFLFSPSPFYFLFLFFFFFFGGVPGNGFGFGILLYFFAAGI,45700
21,HLQTITINSEGDCGHCLSKYGILVIPTLERVVLVSREGRYPWSSWYLELRVFS,32100

row,Sequence,transcriptional activation domain activity
1,HLRNDTRLIPGIKYLQMVLGRVRYCREIIAILARNGHRLPKGMLSTLVRLWLL,34800
2,HLSLSPSLIPTLSFFLLLLYPLVFFIFIIYRGPLFFLFDLTHLICFIYILFIL,27400
3,HLYQISLLLSIFVFFSQGLCRFLYYLPPVPFLTHISSTKLWVWIGLVACLTLK,65800
4,HMALVHLFAFLDRFALFGKLYRAAQVVNRVTSPYVVLAWTSLYSFSLRVVART,52400
5,HMESDEEKERKPKKARKQKAEGSGDEAEPKKKRRGKLKRGGGDHEEAAVAAGE,39200
6,HMLLRQFLILNLFNLIYLHLFLLLWLLLQQLLYLMILFKFPIPYLLALSYRLS,55300
7,HNILHLFSICVFRYHMLYYDEVRYIWKRWRRRSTYWFFLNRYFNFFGNGAITV,64600
8,HNLFELVFLDQMCGFCCFSMRFVVMLDLIGTIILPSTVIYLVYIIIAAVLKFQ,38600
9,HNQPVPKLLHITIYHLSTIPNDNLASFRDLLNHVHVYLLPLVSARPLFTLVTH,78800
10,HNTHKELSEQAVIDSFHVLCFSVGTIKNKPMIVYLVRQGPAIWLTMCTLNDLN,27200
11,HPLIDVSEEAFIQLAYLAVALAKHLCILTRVTYYQNVKGLSSSHFMYLFYICL,40200
12,HPLSQRYVLIMSITRLCIPLYFYGYEDNFIGHETTHWIWILVIYVSLQVLILF,40200
13,HPLSWAKFALVMGMLSSLGVLVISTYSVSLSILQFARPLQYIPRFLWTIATLV,34400
14,HPNDAGDENDGEGESAAPAKEKEPAGTAATPASYQLQSIACHKGTSIHAGHYV,33100
15,HQLGATESGLRAKNDGKLVQAEARAEGRVTFRTYLTYVRAAGTWTWMMTIFFL,52800
16,HQLGLVMLGMRCDLMRWMVCMDGIEYAGDIVIYCPALLLQLQCIVHTYGWAAR,41700
17,HQLYTDWLYLWWIAYTNKMHGRIYIILKESLKNLPIFGWGAQFYNFIFLCRNW,56400
18,HQPGPWESLDMPWAIGWGLGAFPGIPWDVFFFPLWPSTLFPGSPPPSLLEAPS,55500
19,HQVYTDWLYLWCLTYFARAHDQVLIILKKSLKHIPIVGWGMQFFRFLFLARSW,31700
20,HRAGTSGQSLQQDDVLHVTRATLVELGNTSISTVIASLLVLLEDLARPYAAVA,36000

# Reference: the supplement of paper PMC12636428
